Laboratory results from the nanobody polyreactivity screen of Harvey et al. (2022).

Test: yeast display, Sf9 membrane polyspecificity reagent, FACS + sequencing; frameworks hold sequencing errors
How it was run: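 Polyreactivity labels are assigned by the sorting gate from which each nanobody was recovered. The gates were low and high (top ~1%), set on anti-HA fluorescence for expression and streptavidin fluorescence for reagent binding. Before sorting, galactose-induced (36–48 hours) yeast display cells were stained for 1 hour at 4 °C with 10% biotinylated, detergent-solubilized Sf9 membrane reagent.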

Sequence | polyreactivity (PSR sort gate)
QVQLVESGGGLVQAGGSLRLSCAASGSTFPVYAMGWYRQAPGKERELVAAISLIGGSTYYADSVKGRFTISRDNAKNTVYLQMNSLNPEDTAVYYCNNAVISSPPAIDVLEMDYWGQGTQVTVSS | low polyreactivity
QVQLVESGGGLVQAGGSLRLSCAASGSTFPVYAMGWYRQAPGKERELVAAISRAGSTNYADSVKGRFTISRHNAKNTVYLEMNSLKPEDTAVYYCAARGYLWAGEWYVRRDYWGQGTQVTVSS | high polyreactivity
QVQLVESGGGLVQAGGSLRLSCAASGSTFPWYAMGWYRQAPGKERELVASITSGTTTNYADSVKGRFTISRDNAKNTVYLQMNSLKPEDTAVYYCAASWVYPYDYWGQGTQVTVSS | low polyreactivity
QVQLVESGGGLVQAGGSLRLSCAASGSTFPYNARGWYRQAPGKERELVAAINSNGGSTYYADSVKGRFTISRDNAKNTVYLQMNSLKPEDTAVYYCAAGFYYRPFYGSSHSYGYWGQGTQVTVSS | low polyreactivity
QVQLVESGGGLVQAGGSLRLSCAASGSTFPYNVMGWYRQAPGKERELVASISWSGGRQYYADSVKGRFTISRDNAKNTVYLQMNSLKPEDTAVYYCAADAAFPADYWGQGTQVTVSS | low polyreactivity
QVQLVESGGGLVQAGGSLRLSCAASGSTFPYYAMGWYRQAPGKERELVAAITSSGGSTYYADSVKGRFTISRDNAKNTVYLQMNSLKPEDTAVYYCAKGYGPYRQMNYWGQGTQVTVSS | low polyreactivity
QVQLVESGGGLVQAGGSLRLSCAASGSTFPYYAMGWYRQAPGKERELVAAITSSTGRTYYADSVKGRFTISRDNAKNSVYLQMNSLKPEDSAVYYCNAEVYSDPYNDHDYWGQGTQVTVSS | low polyreactivity
QVQLVESGGGLVQAGGSLRLSCAASGSTFPYYAMGWYRQAPGKERELVARISYRGGRTYYADSVKGRFTISRDNAKNTVYLQMNSLKPEDTAVYYCAADRWVYYHSTRYDYWGQGTQVTVSS | high polyreactivity
QVQLVESGGGLVQAGGSLRLSCAASGSTFPYYAMGWYRQATGKEREFVASITYGGGSTYYADSVKGRFTISRDNAKNTVYLQMNSLKPEDTAVYYCAAGYIAGRVWYDYWGQGTQVTVSS | low polyreactivity
QVQLVESGGGLVQAGGSLRLSCAASGSTFPYYDMGWYRQAPGKERELVAAISWSGDSTYYADSVKGRFTISRDNAKNTVYLQMKSLKAEDTAVYYCNADGKAGGDYDYWGQGTQVTVSS | low polyreactivity
QVQLVESGGGLVQAGGSLRLSCAASGSTFPYYPMGWYRQAPGKERELVAAISRGDSTNYADSVKGRFTISRDNAKNTVYLQMNCLKPEDTAVYYCAARLQYRRTSVKYYFWGQGTQVTVSS | high polyreactivity
QVQLVESGGGLVQAGGSLRLSCAASGSTFPYYTMGWYRQAPGKEREMVAAITGSGGSTYYADSVKGRFTISRDNAKNTVYLQMNSLKPEDTAVYYCAKRRWDQYFKNRMYFWGQGTQVTVSS | high polyreactivity
QVQLVESGGGLVQAGGSLRLSCAASGSTFQANAMAWYRPAPGKERELVAAISSRGGITYYADSVKARFTISRDNAKNTVYLQMNSLKPEDTAVYYCNALPRSTYRQGLGVRLYYWGQGTQVTVSS | high polyreactivity
QVQLVESGGGLVQAGGSLRLSCAASGSTFQAYAMGWYRQAPGKERELVAAISVSDGITYYADSVKGRFTISRDNAKNTVYLQMNSLKPEDTAVNYCAAEISLSRSDRIESYDYWGQGTQVTVSS | low polyreactivity
QVQLVESGGGLVQAGGSLRLSCAASGSTFQAYVMGWDRQAPGKERELVAAISRSGGSTYYADSVKGRFTISRDNAKNTVYLQLHSLKPEDTAVYYCAVDASRYGSTGHYGFYYWGQGTQVTVSS | low polyreactivity
QVQLVESGGGLVQAGGSLRLSCAASGSTFQDYAMGWYRQAPGKERELVAAITYSGGSTYYADSVKGRFTISRDNAKNTVYLQLNSLKPDVTAVYYCAAKDTTVFYYDDDYWGQGTQVTVSS | low polyreactivity
QVQLVESGGGLVQAGGSLRLSCAASGSTFQEYAMGWYRQAPGKERELVASIRWSGGRTYYADSVKGRFTISRDNAKNTVYLQMNSLKPEDTAVYYCNKVWVYAVTPSSWYKYGSWGQGTQVTVSS | low polyreactivity
QVQLVESGGGLVQAGGSLRLSCAASGSTFQFYAMGWYRQAPGKERELVAVITSGDDTNYADSVKGRFTISRDNAKNTVYLQMNSLKPEDTAVYYCDVDYILVYTRVRSYWFDYWGQGTQVTVSS | low polyreactivity
QVQLVESGGGLVQAGGSLRLSCAASGSTFQHYAMGWYRQAPGKERELVAAITNTGGSTYYADSVKGRFTISRDNAKNTVYLQMNSLKPEDTAVYYCATVGRRYGYPGYYWGQGTQVTVSS | low polyreactivity
QVQLVESGGGLVQAGGSLRLSCAASGSTFQHYAMGWYRQAPGKERELVAAITNTGGSTYYADSVKGRFTISRDNAMNTVYLLMNSLKPEDTAVYYCATVGRRYGYPGYYWGQGTQVTVSS | low polyreactivity
QVQLVESGGGLVQAGGSLRLSCAASGSTFQINAMGWYRQAHGKERALVAAIDGGGDTYYADSVKGRFTISRDNAKKTDYLQMNSLKPEDTAVYYCAAERRIYYQDFNYCGQGTQVTVSS | low polyreactivity

Sequence | polyreactivity (PSR sort gate)
QVQLVESGGGLVQAGGSLRLSCAASGSTFQKYVMGWYRQAPGKERELVAAISINGVRTYYADSVKGRFTISRDYAKNTVYLQMNSLKPEDTAVFFCNNDTLIRRGSGRGYWGQGTQVNVSS | high polyreactivity
QVQLVESGGGLVQAGGSLRLSCAASGSTFQLYAMGWYRQAPGKERELVATISWRGGSTYYADSVKGRFTISRDNAKNTVYLQMNSLKPEDTAVYYCAADFYLRGRYYSRYGSWGQGTQVTVSS | high polyreactivity
QVQLVESGGGLVQAGGSLRLSCAASGSTFQPYAMGWYRQAPGKEREFVAAIRWGTGSTYYADSVKGRFTISRDNAKNTVYLQMNILKPEDTAVYYCAKRRVSASREYYWGQGTQVTVSS | high polyreactivity
QVQLVESGGGLVQAGGSLRLSCAASGSTFQPYTMGWYRQAPGKERELVAAISSSGRTNYADSVKGRFTISRDNAKNTVYLQMNSLKPEDTAVYYCNRDYPYIWHKGARYWHENDYWGQGTQVTVSS | low polyreactivity
QVQLVESGGGLVQAGGSLRLSCAASGSTFQRYAMGGYRQAPGKERQLVAAISSGGSTYYADSVKGRFTISRDNAKNTVYLQINSLKPEDTAVYYCAARIYVVWSSRVYWMYYWGQGTQVTVSS | high polyreactivity
QVQLVESGGGLVQAGGSLRLSCAASGSTFQRYAMGWYRQAPGKERELVAAITWSNGSTYYADSVKGRFTISRDNAKNTVYLQMNSLKPEDTAVYYCDAEVHLGGDYWGQGTQVTVSS | low polyreactivity
QVQLVESGGGLVQAGGSLRLSCAASGSTFQRYVIGWYRQAPGKERELVAAITRTGASTYYADSVKGRFTISRDNAKNTVYLQMNSLKPEDTAVYYCAARYRLGSYTYDYSGQGTQVTVSS | high polyreactivity
QVQLVESGGGLVQAGGSLRLSCAASGSTFQTNAMGWYRQAPGKERELVAGIRWRGGSTYYADSVKGRFTISRDNAKNTVYLQMNSLKPEDSAVYYCAAYYLWHHYLFDYWGQGTQVTVSS | high polyreactivity
QVQLVESGGGLVQAGGSLRLSCAASGSTFQTYAMGWYRQAPGKERELVASINWRSGSTYYADSVKGRFTISRDNAKNTVYLQMNSLKPEDTAVYSCAAELDFSPGYYYLYDYWGQGTQVTVSS | low polyreactivity
QVQLVESGGGLVQAGGSLRLSCAASGSTFQTYVMGWYRQAPGKERELVAAITWSGGSTYYADSVKGRFTISRDNAKNTVYLQMNSLKPEDTAVYYCAARFPWRGGVKYSYYFQHDYWGQGTQVTVSS | high polyreactivity
QVQLVESGGGLVQAGGSLRLSCAASGSTFQVYAKGWYRQAPGKERELVAAIDSGVSTYYADSVKGLFTFSRDNAKNTVYLQMNSLKPEDTAVYYWYGYDYWGQGTQVTVSS | low polyreactivity
QVQLVESGGGLVQAGGSLRLSCAASGSTFQVYAMGWYRQAPGKERELVATIRRTGGSTYYADSVKGRFTISRDNAKNTVYLQMNSLKPEDTAVYYCAARLGYAGNRDGSWGQGTQVTVSS | high polyreactivity
QVQLVESGGGLVQAGGSLRLSCAASGSTFQVYGLGWYRQAPGKERELVAAISRSGGRTYYADSVKGRFTISRDNAKNTVYLQMNSLKPEDTAVYYCAKTYQTTTSKSGYYYWGQGTQVTVSS | high polyreactivity
QVQLVESGGGLVQAGGSLRLSCAASGSTFQVYTMGWYRQAPGKEREFVASISWSGSSTYYADSVKGRFTISRDNAKNTVYLQMNSLKPEDTAVYYCAAPDESYSVWRLDGLDYWGQGTQVTVSS | high polyreactivity
QVQLVESGGGLVQAGGSLRLSCAASGSTFQYYAMGWYRQAPGKERELVAAISSGGSTYYADSVKGRFTISRDNAKNTVYLQMNSLKPEDTAVYYCAADFVNRQANRQFDYWGQGTQVTVSS | high polyreactivity
QVQLVESGGGLVQAGGSLRLSCAASGSTFQYYAMGWYRQEPGKEREFVASISGSGGSTNYADSVKGRFTISRDNAKNTVYLQMNSLKPEDTAVYYCAKEYVTEFQGYYYWGQGTQVTVSS | low polyreactivity
QVQLVESGGGLVQAGGSLRLSCAASGSTFQYYDMGWYRQAPGKERELVASITGSGDSTYYADSVKGRFTISRDNAKNTVYLQMNSLKPEDTAVYYWGQGTQVTVSS | low polyreactivity
QVQLVESGGGLVQAGGSLRLSCAASGSTFRANTMGWYRQAPGKERELVAAITSGGSTYYADSVKGRFTISRDNAKNTVYLQMNSLKPEDTAVYYCAADYTGDWADGPHSLREYDYWGQGTQVTVSS | low polyreactivity
QVQLVESGGGLVQAGGSLRLSCAASGSTFRDYAMGWYRQAPGKERELVASITSGSSTYADSVKGRFTISRDNAKNTVYLQMNCLKPEDTAVYYCNADGITSLPVPALDYWGQGTQVTVSS | low polyreactivity
QVQLVESGGGLVQAGGSLRLSCAASGSTFREYTMGWYRQAPGKEWDLVAAITNSGGSTYYADSVKGRFTISRDNAKNTVYLQMNSLKPEDTAVYYCAAEVGIVDYDYWGQGNQVTVSS | low polyreactivity
